# Data taken from patent publication US20120184485A1.
# Tests used:
# [1] = molecular target: scavenger receptor CD36; test: flow cytometry on CD36-transfected CHO cells, rAv17 at 5 µg/ml; baseline 20%
# [2] = molecular target: scavenger receptor CD36; test: flow cytometry on CD36-transfected CHO cells, rAv17 at 2.5 µg/ml; baseline 20%
substance,measurement,setting,value
recombinant Acanthocheilonema viteae cystatin (rAv17),fluorescence positive cells,[1],89%
same,fluorescence positive cells,[2],71%
